# From US11504389
# Experiments:
# Assay in all cases: cell_activity
# [1] = test system: ZFP SBS#57890 (synthetic); settings: human iPSC neurons, 3E5 VG/cell; poor mismatch tolerance
# [2] = test system: ZFP SBS#52389 (synthetic); settings: AAV2/9 CMV-52389-KRAB, 3E5 VG/cell, mouse cortical neurons
# [3] = test system: ZFP SBS#57880 (synthetic); settings: human iPSC neurons, 3E5 VG/cell
# [4] = test system: ZFP SBS#52322 (synthetic); settings: mouse hippocampus in vivo, mean MAPT mRNA reduction
# [5] = test system: ZFP SBS#52366 (synthetic); settings: human iPSC neurons, 3E5 VG/cell
sequence,measurement,setting,value
ACCCACCAGCTCCGGCAC (double strand) [57890 human MAPT site],activity,[1],45 % repression
CCGTTGCGCCTGATTGATGCCCAGCTCC (double strand) [52389 target],activity,[2],98 % repression
GCAGTCACCGCCACCCACC (double strand) [57880 human MAPT site],activity,[3],95 % repression
GTGGCGGAGACTGAGAGCGCGCGCGGCC (double strand) [52322 target],activity,[4],66 % repression
TCTGTCGACTATCAG (double strand) [52366 human MAPT site],activity,[5],87 % repression
